Results published in publication PMC12650235, “Optimized Aptamer-Conjugated Gold Nanoparticles for Specific Detection of GII.4 Human Norovirus in Feces”.

Experiments:
[1] = test system: GII.4 HuNoV VLP (VP1 capsid) (Human norovirus GII.4 Hu/GII.4/DBM15-156/2015); test: BLI; conditions: BLI: PBST + 5 mM Mg2+, biotin-aptamer 100 nM, VLP 18.75-150 nM, Octet RED96, ELASA: VLP 3 ug/mL, aptamer 1 uM, CD: 10 mM Tris-HCl pH 7.4, 1.0 mM NaCl, 0.05 mM …
[2] = test system: GII.4 HuNoV VLP (VP1 capsid) (Human norovirus GII.4 Hu/GII.4/DBM15-156/2015); test: ELASA; conditions: BLI: PBST + 5 mM Mg2+, biotin-aptamer 100 nM, VLP 18.75-150 nM, Octet RED96; ELASA: VLP 3 ug/mL, aptamer 1 uM; CD: 10 mM Tris-HCl pH 7.4, 1.0 mM NaCl, 0.05 mM …
GII.17 HuNoV VLP = GII.17 HuNoV VLP (Human norovirus GII.17 …, UniProt A0A0E3X5I8 1-540); test: AuNP colorimetric competition; A620/A520 < 0.4; BLI: PBST + 5 mM Mg2+, biotin-aptamer 100 nM, VLP 18.75-150 nM, Octet RED96; ELASA: VLP 3 ug/mL, aptamer 1 uM; CD: 10 mM Tris-HCl pH 7.4, 1.0 mM NaCl, 0.05 mM MgCl2, room temperature; conditions: protein: recombinant; chain copies: 180; label: biotin (5' in the colorimetric assay); stem-loops
GII.2 HuNoV VLP = GII.2 HuNoV VLP (Human norovirus GII.2 Env/CHN/2016, UniProt A0A291L9K1 1-542); test: as above; conditions: protein: recombinant; tags: His; chain copies: 180; label: biotin (5' in the colorimetric assay); stem-loops

## AACACGACCCACGTACCTGTGCGAGACACAGACCACCAAGGTGGGC [AP4-11]
[1]
  Kd: 2.28 nM

## AACACGACCCACGTACCTGTGTGAGACACAGACCACCAAGGTGGGC [AP4-11-2 (C22T)]
[2]
  binding signal (% of AP4-11 (46% loss)): 54
[1]; 5 mM Mg2+, poor fit R2=0.86
  Kd: 4.62 nM

## AACACGACCCACGTACCTGTGCGAGACACAGACCACCAAGGTGGGC (structured_DNA) [AP4-11]
GII.17 HuNoV VLP
  binding result: no binding
GII.2 HuNoV VLP
  binding result: no binding
